Results from paper PMC12072117.

Target: cyclin-dependent kinase 1 (CDK1) (Xenopus laevis (endogenous in oocyte CSF extract))

histone H1 kinase activity of CDC6-depleted CSF extract with 10 to 20 nM GST-CDC6 added (about 40% less with 10 nM, 45% less with 20 nM): 45 % less
Substance: glutathione S-transferase-tagged cell division cycle 6 (GST-CDC6) (natural protein)
